To fix the notation:
B1: H2-Kb / Ed16-1 (parent complex)
chain 1: GEQVEQRPPHLSVREGDSAVITCTYTDPNSYYFFWYKQEPGASLQLLMKVFSSTEINEGQGFTVLLNKKDKRLSLNLTAAHPGDSAAYFCAVSGSNNRIFFGDGTQLVVKP
chain 2: EAAVTQSPRSKVAVTGGKVTLSCHQTNNHDYMYWYRQDTGHGLRLIHYSYVADSTEKGDIPDGYKASRPSQENFSLILELASLSQTAVYFCASRTGTDYTFGSGTRLLVI
chain 3: not shown
chain 4: IQKTPQIQVYSRHPPENGKPNILNCYVTQFHPPHIEIQMLKNGKKIPKVEMSDMSFSKDWSFYILAHTEFTPTETDTYACRVKHDSMAEPKTVYWDRDM
chain 5: SIINFEKL

The variants in this test derive from B1. Put plainly: % of reporter cells activated (NFAT-GFP), raw. Further: test concentration or dose not given here.
For the variant chain 5 K7H, the ratio to parent stood at 1.18. Next, chain 5 K7M: 0.848. For the variant chain 5 K7Q, the ratio to parent turned out to be 1.01.

chain 5 K7D: the ratio to parent is 0.979. To chain 5 K7C belongs 0.781; to chain 5 K7E, 0.559. Consider chain 5 K7T, for which the ratio to parent turned out to be 0.905.

Turning to chain 5 K7Y, the ratio to parent worked out at 1.04. Take chain 5 K7P: the ratio to parent is 1.17. chain 5 K7S: the ratio to parent was found to be 0.912. Next, chain 5 K7G: 0.924; chain 5 K7N: 0.903. With chain 5 K7A, the ratio to parent is 0.91. Next, chain 5 K7R: 1.09; chain 5 K7L: 0.832; chain 5 K7W: 0.776. Next, chain 5 K7V: 0.771; chain 5 K7F: 0.632; chain 5 K7I: 0.847. Next, chain 5 I2N: 0.607. For the variant chain 5 I2T, the ratio to parent was determined as 0.926. Turning to chain 5 I2P, the ratio to parent came out at 0.794.

On to chain 5 I2C, for which the ratio to parent was 1.04. For chain 5 I2F, the ratio to parent was determined as 0.849. To chain 5 I2K belongs 0.743; to chain 5 I2M, 1.06. To chain 5 I2Y belongs 0.597; to chain 5 I2W, 0.749; to chain 5 I2S, 0.94. As for chain 5 I2G, the ratio to parent stood at 1.04. Next, chain 5 I2H: 0.627; chain 5 I2D: 0.912. Consider chain 5 I2L, for which the ratio to parent stood at 1.08. To chain 5 I2Q belongs 0.713.

In the case of chain 5 I2E, the ratio to parent is 0.976.

For the variant chain 5 I2R, the ratio to parent was 0.651. chain 5 I2A: the ratio to parent was found to be 1.01. chain 5 I2V: the ratio to parent came out at 1.1. chain 5 L8H: the ratio to parent turned out to be 1.01. Regarding chain 5 L8S, the ratio to parent came to 0.941.

chain 5 L8G: the ratio to parent was 0.994.

Turning to chain 5 L8P, the ratio to parent came out at 1.07. Take chain 5 L8Y: the ratio to parent was 1. As to chain 5 L8A, the ratio to parent amounted to 1.01.

In the case of chain 5 L8I, the ratio to parent came out at 1.02. Next, chain 5 L8M: 1.03; chain 5 L8Q: 1.07; chain 5 L8N: 0.861. To chain 5 L8W belongs 0.828; to chain 5 L8V, 0.83. To chain 5 L8F belongs 0.952.

Regarding chain 5 L8R, the ratio to parent was found to be 0.935.

On to chain 5 L8T, for which the ratio to parent came to 0.968. To chain 5 L8E belongs 0.883; to chain 5 L8D, 0.834. Next, chain 5 L8C: 0.85; chain 5 S1C: 0.0551. Next, chain 5 S1H: 0.199; chain 5 S1W: 0.0447; chain 5 S1N: 0.0326.

As for chain 5 S1M, the ratio to parent was 0.0059.

In the case of chain 5 S1Q, the ratio to parent stood at 0.0527. For the variant chain 5 S1A, the ratio to parent was found to be 0.48. Next, chain 5 S1L: 0.00107; chain 5 S1K: 0.038.

Consider chain 5 S1P, for which the ratio to parent is 0.00277. Next, chain 5 S1R: 0.0909; chain 5 S1E: 0.0746. Next, chain 5 S1V: 0.0177. Consider chain 5 S1G, for which the ratio to parent came out at 0.521. To chain 5 S1F belongs 0.0013. For chain 5 S1T, the ratio to parent was 0.66. Next, chain 5 S1I: 0.00139. Regarding chain 5 S1Y, the ratio to parent worked out at 0.419. To chain 5 F5C belongs 0.943. For chain 5 F5D, the ratio to parent was 0.823. As for chain 5 F5V, the ratio to parent worked out at 0.848. Turning to chain 5 F5K, the ratio to parent was found to be 0.803. As to chain 5 F5N, the ratio to parent was determined as 0.725.

Regarding chain 5 F5I, the ratio to parent was 0.96.

For the variant chain 5 F5G, the ratio to parent stood at 0.516. Next, chain 5 F5M: 1.08; chain 5 F5P: 0.181. Consider chain 5 F5H, for which the ratio to parent amounted to 0.943. As to chain 5 F5T, the ratio to parent was 0.843. To chain 5 F5W belongs 0.699; to chain 5 F5A, 0.976. To chain 5 F5R belongs 0.818; to chain 5 F5L, 1.02; to chain 5 F5Q, 0.97. chain 5 F5E: the ratio to parent came to 0.742. Turning to chain 5 F5Y, the ratio to parent was determined as 1.07. Next, chain 5 F5S: 0.917; chain 5 I3S: 0.592; chain 5 I3T: 0.716.

For chain 5 I3W, the ratio to parent came to 0.744. To chain 5 I3P belongs 0.865; to chain 5 I3F, 0.0814; to chain 5 I3L, 0.889. To chain 5 I3Q belongs 0.605. To chain 5 I3Y belongs 0.00742; to chain 5 I3V, 1.06; to chain 5 I3G, 0.473. For the variant chain 5 I3R, the ratio to parent was 0.301. In the case of chain 5 I3N, the ratio to parent turned out to be 0.755. As to chain 5 I3M, the ratio to parent was determined as 0.842. On to chain 5 I3E, for which the ratio to parent stood at 0.864. Next, chain 5 I3C: 0.777; chain 5 I3A: 0.883; chain 5 I3D: 0.172. In the case of chain 5 I3K, the ratio to parent was found to be 0.521. To chain 5 I3H belongs 0.33; to chain 5 E6S, 0.0513. Next, chain 5 E6N: 0.0535; chain 5 E6G: 0.187. As to chain 5 E6Q, the ratio to parent came out at 0.187. With chain 5 E6M, the ratio to parent was 0.219. To chain 5 E6P belongs 0.00132; to chain 5 E6C, 0.00912. Next, chain 5 E6H: 0.0978. To chain 5 E6T belongs 0.0356.

On to chain 5 E6Y, for which the ratio to parent is 0.106.

Regarding chain 5 E6L, the ratio to parent came out at 0.0059. Regarding chain 5 E6R, the ratio to parent came out at 0.00877. In the case of chain 5 E6I, the ratio to parent was determined as 0.0059. Next, chain 5 E6W: 0.117.

Turning to chain 5 E6D, the ratio to parent came to 0.371. Next, chain 5 E6A: 0.0174. Regarding chain 5 E6K, the ratio to parent was 0.608. For chain 5 E6V, the ratio to parent came out at 0.00707.

On to chain 5 E6F, for which the ratio to parent was found to be 0.153. Take chain 5 N4G: the ratio to parent is 0.0463. In the case of chain 5 N4R, the ratio to parent was found to be 0.19. For chain 5 N4D, the ratio to parent worked out at 0.0372. Next, chain 5 N4S: 0.492; chain 5 N4F: 0.0302. For the variant chain 5 N4L, the ratio to parent was 0.617. On to chain 5 N4I, for which the ratio to parent amounted to 0.0165. To chain 5 N4M belongs 0.000769; to chain 5 N4Q, 0.000537; to chain 5 N4K, 0.211. To chain 5 N4P belongs 0.0188; to chain 5 N4A, 0.124. To chain 5 N4T belongs 0.0307; to chain 5 N4C, 0.00253; to chain 5 N4V, 0.00138.

Consider chain 5 N4W, for which the ratio to parent came out at 0.0025. Take chain 5 N4H: the ratio to parent was found to be 0.0158. Next, chain 5 N4Y: 0.021. Consider chain 5 N4E, for which the ratio to parent stood at 0.00277.

These data come from PMC11480844 (2024).
